These results are taken from the supplement of paper PMC12764529.

Data set [1] in a line: folding stability dG unfold from trypsin proteolysis; higher = more stable. The gist of the method: (§1)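 K50 was inferred by Bayesian fitting of sequencing counts obtained after protease digestion of designed mini-proteins. Unfolding free energy was derived by comparison with a sequence-predicted unfolded-state K50 and a shared folded-state K50, for each protease or both combined. The mini-proteins were under 80 residues, had no cysteine, were carried in a PA-tagged cDNA display construct, and were kept only if AlphaFold2 dimer inter-PAE exceeded 15.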

The nature of data set [2]: folding stability dG unfold from chymotrypsin proteolysis; higher = more stable. The gist of the method: as §1
Data set [3] is described as follows: folding stability dG unfold (combined trypsin and chymotrypsin); higher = more stable. The gist of the method: as §1

± gives the half width of the 95% confidence interval.

“SAGGSAEVERFEIPVTSEEELEKLIEELKKAPGVLSVEKTPDGTLVVTVPKGKSDIVEEAAKKAGLSAGGSA [r15_834_JUSTAS]”: the “folding stability dG unfold” value in data set [1] amounted to 2.7 ± 0.12 kcal/mol; in data set [2] it was 3.17 ± 0.11 kcal/mol; in data set [3], 2.97 ± 0.09 kcal/mol.
For “SAGGSAEVTFTLPDGTPFSGEVTRFPDSIRVTLTVGSTPASFEMDPSTNLITGNIPGRPLTVSLGLSAGGSA [r2_194_JUSTAS]”, in that order: 1.17 ± 0.03 kcal/mol, 1.11 ± 0.1 kcal/mol and 1.18 ± 0.053 kcal/mol.
Take “SAGGSAEVTITVEYDEETGVLKITITVPPGVTVEEIAEALKKLVPDVKVEKNEDGTITVYVKLPEKSAGGSA [r15_1057_TrROS_Hall]”: the figures for the “folding stability dG unfold” value in data set [1], in data set [2] and in data set [3] were 2.44 ± 0.16 kcal/mol, 4.36 ± 0.16 kcal/mol and 4.07 ± 0.33 kcal/mol, respectively.
For “SAGGSAFKIKIPEDLRGAPPGGKIEIEFPNGVRAEIEYKDGEWVIEVKHYGPNGKPVEEHEFRIKVSAGGSA [r15_558_TrROS]”, in that order: 1.47 ± 0.046 kcal/mol, 0.94 ± 0.18 kcal/mol and 1.28 ± 0.22 kcal/mol.
For “SAGGSAFPIRIKDDNQKKIMIPFDSPEELEDLLKEPGIDKVDPEPNPDGNQPWFTIDLPNGKIELWSAGGSA [r15_632_TrROS]”, the entries for the “folding stability dG unfold” value in data set [1], in data set [2] and in data set [3] were -1.53 ± 0.5 kcal/mol, -1.04 ± 0.66 kcal/mol and -0.826 ± 0.38 kcal/mol, respectively.
For “SAGGSAGEAYSVVKASWNPETGTLNIVVKNPSTGEQKVYNIKPGNPVIDFPEGSVIESIEINPSPYSAGGSA [r15_959_TrMRF]”, the “folding stability dG unfold” value was found to be 0.237 ± 0.095 kcal/mol in data set [1], 1.03 ± 0.2 kcal/mol in data set [2] and 0.835 ± 0.11 kcal/mol in data set [3].
The like results for “SAGGSAGGAIGTIDYNGKPLRLSVYLPDNPRVFEYPVDGDPLVFAAELNRETGFDVTDVVVVGGSAGGSAGG [r6_762_TrMRF]” were, in that order, 0.291 ± 0.098 kcal/mol, 0.033 ± 0.18 kcal/mol and 0.132 ± 0.14 kcal/mol.
The like results for “SAGGSAGGAPILPEVKKIGFEKLPNGEYKVTIYVKGGKKLAEITFPPNTTIEQAVEDAIEALKSSAGGSAGG [r6_435_TrMRF]” were, in that order, 2.3 ± 0.063 kcal/mol, 2.38 ± 0.048 kcal/mol and 2.28 ± 0.091 kcal/mol.
For “SAGGSAGGAPLMIMLEAEWKREPDPNGDKRRKVKLRVSIMTPRPDPDGKPNMHMISIPITFKVKSAGGSAGG [r6_224_TrROS]”, in that order: 2.87 ± 0.087 kcal/mol, 4.08 ± 0.07 kcal/mol and 3.51 ± 0.2 kcal/mol.
On to “SAGGSAGGAPPDARVTIEVELKNPDGTPISEEEVIEKLKPLGLEPVEIDVDPETGKVTITVRVLSAGGSAGG [r6_774_JUSTAS]”, for which the “folding stability dG unfold” value was 1.69 ± 0.053 kcal/mol in data set [1], 1.04 ± 0.092 kcal/mol in data set [2] and 1.41 ± 0.083 kcal/mol in data set [3].
With “SAGGSAGGDGPGAPPVPRIRIKVEFEHNGKKVTWEFRSLDDMKEQVKERFKENGLKVKITEIEWSAGGSAGG [r6_869_TrROS]”, the “folding stability dG unfold” value in data set [1] is 1.67 ± 0.06 kcal/mol; in data set [2] it was 2.04 ± 0.041 kcal/mol; in data set [3], 1.88 ± 0.1 kcal/mol.
Take “SAGGSAGGDPRPVRVEVLRLEYDPPSGLLRALVRNPENDLLVFATLRIFPDPAGAELRVESVVFSAGGSAGG [r6_70_TrMRF]”: the “folding stability dG unfold” value in data set [1] amounted to 1.39 ± 0.071 kcal/mol; in data set [2] it was 2.85 ± 0.1 kcal/mol; in data set [3], 2.49 ± 0.11 kcal/mol.
For “SAGGSAGGDSIEFIIPYDDMPKEEAKRRVRWIANGFAEHNPGKPIEIEIHVIPVPPPPSPEDKNSAGGSAGG [r6_729_TrROS]”, in that order: -0.0761 ± 0.16 kcal/mol, -0.467 ± 0.66 kcal/mol and -0.163 ± 0.16 kcal/mol.
The like results for “SAGGSAGGDTITIWIPGMPLEELRDLLKAFFPGKDVSVEYDPEHGSFVLTVNGKKITIHIMPPNSAGGSAGG [r6_609_TrROS]” were, in that order, 3.89 ± 0.1 kcal/mol, 4.45 ± 0.061 kcal/mol and 4.45 ± 0.086 kcal/mol.
Take “SAGGSAGGDTVVIEVDMSEEEALALARALADAGKTVEIVVRDKDGRTRKITITVPPEELELPEESAGGSAGG [r6_62_TrROS_Hall]”: the “folding stability dG unfold” value in data set [1] came to 1.74 ± 0.019 kcal/mol; in data set [2] it was 2.11 ± 0.029 kcal/mol; in data set [3] it was 1.95 ± 0.042 kcal/mol.
Regarding “SAGGSAGGDYMMIKITNGSIKLMDGDDGKPIANLPPNQEITIMIPIKPPPPPEERKYDPNGKPKSAGGSAGG [r6_40_TrROS]”, the “folding stability dG unfold” value in data set [1] worked out at 0.515 ± 0.2 kcal/mol; in data set [2] it was 1.24 ± 0.2 kcal/mol; in data set [3] it was 0.799 ± 0.32 kcal/mol.
On to “SAGGSAGGDYVKIEIWIPPGMPDAEELVDKMSNYGFEIKKIERDPKNNYVRVTIVFQIPPGAIKSAGGSAGG [r6_604_TrROS]”, for which the entries for the “folding stability dG unfold” value in data set [1], in data set [2] and in data set [3] were 1.67 ± 0.084 kcal/mol, 2.43 ± 0.067 kcal/mol and 2.26 ± 0.27 kcal/mol, respectively.
As to “SAGGSAGGEDPNFTPPVKVYYLDLEIEVKPNEIEKLKEEFPDLEAEYEKLGDTYKVKLRIPVPVSAGGSAGG [r6_685_TrMRF]”, the “folding stability dG unfold” value in data set [1] turned out to be 1.51 ± 0.077 kcal/mol; in data set [2] it was 2.03 ± 0.12 kcal/mol; in data set [3], 1.85 ± 0.17 kcal/mol.
The like results for “SAGGSAGGEEEETVTLTLEVEVEAEVKVEKNADGEETEVEVKVKRVRVRLTLTLTKEELEKLLKSAGGSAGG [r6_119_TrROS_Hall]” were, in that order, 2.59 ± 0.14 kcal/mol, 4.17 ± 0.15 kcal/mol and 3.54 ± 0.31 kcal/mol.
In the case of “SAGGSAGGEELLATATPVTVGDEVYYRFTIRNPDGTPIGDRLVPASVLSGYSPDTVITLPPDLLSAGGSAGG [r6_34_JUSTAS]”, the “folding stability dG unfold” value in data set [1] came out at 1.29 ± 0.024 kcal/mol; in data set [2] it was 0.784 ± 0.16 kcal/mol; in data set [3] it was 1.04 ± 0.094 kcal/mol.
The like results for “SAGGSAGGEGWRPLNVWIPFPDPKARLDEIVDMISKLFGWPIKIKITEVIPGDPDMIRVTIYVPSAGGSAGG [r6_211_TrROS]” were, in that order, 3.41 ± 0.11 kcal/mol, 3.53 ± 0.056 kcal/mol and 3.47 ± 0.091 kcal/mol.
For “SAGGSAGGEKEYIIKIKLEMPNGREMKHWFPFKTVEQIKDQLRKLPDPNYKIDDVEIMPADELKSAGGSAGG [r6_297_TrROS]”, in that order: -0.237 ± 0.14 kcal/mol, 0.594 ± 0.15 kcal/mol and 0.263 ± 0.12 kcal/mol.
The like results for “SAGGSAGGEKKGKPPVKIVIKVRDVDTGETRTITLTIEPDMTVEEIRELLRALLPPGAEVEIVPSAGGSAGG [r6_440_TrROS_Hall]” were, in that order, 1.6 ± 0.052 kcal/mol, 3.45 ± 0.15 kcal/mol and 3.08 ± 0.16 kcal/mol.
For the sequence “SAGGSAGGELPPPPLLVVRVTVRRDGKELELELVVPSLEEALEALRALLPEEDLEIRVEVRLLPSAGGSAGG [r6_113_TrROS_Hall]”, the “folding stability dG unfold” value stood at 2.12 ± 0.089 kcal/mol in data set [1], 2.92 ± 0.16 kcal/mol in data set [2] and 2.67 ± 0.2 kcal/mol in data set [3].
“SAGGSAGGENNIEVYYVEVKVPDPSIPLSVVLEKLPLPPEFLTVTPVEVKPPDGTVLIAIYRDSSAGGSAGG [r6_955_TrMRF]”: the “folding stability dG unfold” value in data set [1] is 0.516 ± 0.02 kcal/mol; in data set [2], -0.0815 ± 0.14 kcal/mol; in data set [3], 0.409 ± 0.089 kcal/mol.
With “SAGGSAGGEPPPVVITVTVRNPATGETVKATAVLNPDGTLQVTVTRPDGSKQTFTATISAEALKSAGGSAGG [r6_588_TrROS_Hall]”, the results for the “folding stability dG unfold” value in data set [1], in data set [2] and in data set [3] were 2.76 ± 0.33 kcal/mol, 3.86 ± 0.15 kcal/mol and 3.63 ± 0.34 kcal/mol, respectively.
For “SAGGSAGGEPVKIEWEPIGRDPNGAFKFRLIIRDPDGTVQRTEIWINPNGGMQVETETIPPEDNSAGGSAGG [r6_263_TrROS]”, in that order: 1.92 ± 0.065 kcal/mol, 2.15 ± 0.085 kcal/mol and 2.13 ± 0.14 kcal/mol.
